T1: soluble extracellular D2-D3 region of human FGFR1c (Asp142-Arg365) (human, UniProt P11362 142-365)
T1 chain: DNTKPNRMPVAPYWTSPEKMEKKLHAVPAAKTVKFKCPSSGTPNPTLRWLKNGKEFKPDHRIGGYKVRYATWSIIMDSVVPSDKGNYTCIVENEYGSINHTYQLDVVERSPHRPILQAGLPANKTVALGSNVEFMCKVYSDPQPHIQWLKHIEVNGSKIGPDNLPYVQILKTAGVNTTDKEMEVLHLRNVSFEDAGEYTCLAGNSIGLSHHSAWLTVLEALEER

T2: soluble extracellular D2-D3 region of human FGFR1c (Asp142-Arg365) (human, UniProt P11362 142-365)
T2 construct: fibroblast growth factor receptor 1, 'c' splice isoform, human, extracellular D2-D3 region, residues Asp142-Arg365; also called FGFR1c ectodomain; FGFR1c isoform; source: E. coli (BL21), purified
T2 sequence (looked up): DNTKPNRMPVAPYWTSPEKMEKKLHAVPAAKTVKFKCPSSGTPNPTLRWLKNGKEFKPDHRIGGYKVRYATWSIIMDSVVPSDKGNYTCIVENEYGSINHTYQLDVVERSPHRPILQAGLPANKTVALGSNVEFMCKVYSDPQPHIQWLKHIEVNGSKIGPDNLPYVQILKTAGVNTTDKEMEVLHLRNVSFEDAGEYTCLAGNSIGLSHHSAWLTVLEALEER


Legend:
[1] = target: T1, soluble extracellular D2-D3 region of …; assay: SPR
[2] = target: T2, soluble extracellular D2-D3 region of …; assay: SPR; BIAcore T200; HBS-EP buffer (10 mM HEPES-NaOH, pH 7.4, 150 mM NaCl, 3 mM EDTA, 0.005% Surfactant P20); which partner was immobilised is not told in the main text; details: both partners purified

Binder	Kd [1] [nM]	binding result [2]
N-terminally truncated human FGF4 (rFGF4) (Ala67-Leu206) (domain or fragment, UniProt P08620 67-206, looked up, fibroblast growth factor 4, human, engineered N-terminal truncation, residues Ala67-Leu206; also called truncated rFGF4; source: E. coli (BL21), purified) AAVQSGAGDYLLGIKRLRRLYCNVGIGFHLQALPDGRIGGAHADTRDSLLELSPVERGVVSIFGVASRFFVAMSSKGKLYGSPFFTDECTFKEILLPNNYNAYESYKYPGMFIALSKNGKTKKGNRVSPTMKVTHFLPRL	716	binds
full length mature form human FGF4 (mFGF4) (Ala31-Leu206) (ligand, UniProt P08620 31-206, looked up, fibroblast growth factor 4, human, full length mature form, residues Ala31-Leu206; also called wild-type parent molecule; source: E. coli (BL21), purified) APTAPNGTLEAELERRWESLVALSLARLPVAAQPKEAAVQSGAGDYLLGIKRLRRLYCNVGIGFHLQALPDGRIGGAHADTRDSLLELSPVERGVVSIFGVASRFFVAMSSKGKLYGSPFFTDECTFKEILLPNNYNAYESYKYPGMFIALSKNGKTKKGNRVSPTMKVTHFLPRL	464	binds

Source: article PMC8671394, “Paracrine FGFs target skeletal muscle to exert potent anti-hyperglycemic effects” (Nature Communications, 2021)
